Data: the supplement of paper PMC9732359
± gives the uncertainty stated by the source.

Test: protein stability index of a GFP-peptide fusion (yeast GPS) (PSI 1-4); higher = more stable; sorted into four equal gates, so the index is relative within each strain
Outline: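 For each peptide, the protein stability index sums the read frequency in every gate after multiplying it by the gate number. Read frequencies came from plasmids that were PCR-amplified from each gate and Illumina-sequenced, with reads assigned to strains by barcodes. The gates were four equal bins of GFP/Cherry fluorescence ratio applied to mid-log yeast in leucine-free medium carrying a pooled library of tiled 17-residue yeast protein peptides fused downstream of GFP on a Cherry-expressing plasmid.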

Sequence | protein stability index (doa10∆) | protein stability index (pdr5∆) | protein stability index (san1∆) | protein stability index (ubr1∆)
DSGIGSNGSGIVAAGGG [CSL4] | 3.45 ± 0.066 | 3.34 ± 0.07 | 3.35 ± 0.052 | 3.42 ± 0.058
DSKNTPNVFDKDSYVRI [YDL088C/ASM4] | 3.01 ± 0.12 | 3.11 ± 0.048 | 3.06 ± 0.072 | 3.25 ± 0.051
DSLTQNNNNAPIIIYGT [YOR098C/NUP1] | 2.69 ± 0.047 | 2.93 ± 0.041 | 2.8 ± 0.041 | 2.92 ± 0.038
DSNGDFNEDQLFSLLEL [RRP46] | 2.83 ± 0.16 | 2.82 ± 0.16 | 3.31 ± 0.069 | 2.98 ± 0.1
DSNMDSISSVVSEDLLD [RPN4] | 2.3 ± 0.073 | 2.31 ± 0.056 | 2.76 ± 0.05 | 2.45 ± 0.032
DSNSEILNFLNQEDLFE [YML103C/NUP188] | 2.79 ± 0.12 | 2.86 ± 0.089 | 2.76 ± 0.049 | 3.14 ± 0.086
DSPASNEDDLTVKLTEI [RPO31] | 2.94 ± 0.071 | 3.15 ± 0.068 | 2.97 ± 0.053 | 3.19 ± 0.056
DSSSVSEDSAVFKATSS [FAS1] | 3 ± 0.089 | 3.32 ± 0.096 | 2.98 ± 0.065 | 3.14 ± 0.083
DSTQLLETILEEFRNLA [SSN2] | 2.69 ± 0.076 | 3.18 ± 0.065 | 2.85 ± 0.055 | 3.2 ± 0.054
DSVENSSNILEDILYYS [SRB8] | 2.92 ± 0.13 | 2.74 ± 0.073 | 2.5 ± 0.058 | 2.72 ± 0.059
DSVFSFGPKKENRKKDE [YLR335W/NUP2] | 3.01 ± 0.091 | 2.86 ± 0.078 | 2.9 ± 0.048 | 3.03 ± 0.056
DTDKLPIKNRTSKSFSK [SIN4] | 2.83 ± 0.1 | 2.85 ± 0.067 | 2.61 ± 0.11 | 2.92 ± 0.068
DTETFDTVNSALENDVA [YML103C/NUP188] |  | 3.63 ± 0.23 | 3.16 ± 0.2 | 2.69 ± 0.17
DTFVHVTDLSGKETIAR [RPS14B] | 2.88 ± 0.087 | 2.98 ± 0.066 | 2.83 ± 0.062 | 2.98 ± 0.058
DTKDALSTRELAGKVGS [RPC53] | 2.8 ± 0.08 | 2.27 ± 0.084 | 2.79 ± 0.1 | 3.08 ± 0.071
DTKSVVGLVMFSQFWYW [RPN2] | 2.35 ± 0.06 | 2.3 ± 0.062 | 2.61 ± 0.097 | 2.52 ± 0.04
DTSDIIVDPTAEQLKIS [RRP46] | 1.79 ± 0.091 | 2.19 ± 0.097 | 2.73 ± 0.14 | 2.12 ± 0.092
DVAFADGGKTLRACAAN [YMR129W/POM152] | 1.54 ± 0.18 | 2.6 ± 0.19 |  | 2.36 ± 0.1
DVDPEFYLKYVDIRVGK [RET1] | 3.31 ± 0.28 | 2.79 ± 0.16 | 2.4 ± 0.14 | 2.54 ± 0.1
DVEENRSEFIESLLNWI [YJR042W/NUP85] | 3.19 ± 0.12 | 3.08 ± 0.085 | 3.35 ± 0.14 | 3.34 ± 0.069
DVETVKREIQEALSEKP [RPC53] | 3.27 ± 0.15 | 3.42 ± 0.12 | 3.17 ± 0.13 | 3.35 ± 0.1
DVFTINPHQKDQLIISS [YML103C/NUP188] | 1.56 ± 0.18 | 2.19 ± 0.19 | 1.62 ± 0.24 | 2.74 ± 0.24
DVIHFEDSSILQSIVNE [PCI8] | 3.21 ± 0.089 | 3.06 ± 0.076 | 3.04 ± 0.05 | 3.47 ± 0.073
DVKLLNPIDIKRRFGEL [RPP1] | 2.46 ± 0.089 | 2.7 ± 0.078 | 2.38 ± 0.14 | 2.97 ± 0.047
DVLKDGENNINFQKASA [BRN1] | 3.31 ± 0.16 | 3.4 ± 0.12 | 3.51 ± 0.077 | 3.31 ± 0.11

Sequence | protein stability index (doa10∆) | protein stability index (pdr5∆) | protein stability index (san1∆) | protein stability index (ubr1∆)
DVPAYNVTSFMPFWKFF [SRB8] | 1.62 ± 0.037 | 1.68 ± 0.04 | 1.5 ± 0.06 | 1.56 ± 0.031
DVPGRELKYELIAEESE [RPB2] | 3.07 ± 0.19 | 3.01 ± 0.12 |  | 
DVVEYLDKVINKELPIN [RPN8] | 2.82 ± 0.22 | 3 ± 0.2 |  | 3.12 ± 0.19
DVVGTLSRNGKPVMEVT [FAS1] | 2.62 ± 0.13 | 2.81 ± 0.13 | 2.65 ± 0.12 | 2.63 ± 0.08
DWEDEEKYEDEDEEKIL [DSN1] | 3.28 ± 0.11 | 2.94 ± 0.16 | 3.26 ± 0.24 | 3.25 ± 0.15
DYGEEIKSGVAKLESLL [MTW1] | 3.26 ± 0.24 | 3.11 ± 0.12 | 3.37 ± 0.13 | 3.4 ± 0.087
DYLTLNKVVVNLNDAGL [RPN2] | 2.73 ± 0.091 | 3.02 ± 0.08 |  | 3.16 ± 0.06
DYNLRIYCYFLIMKLGR [SSN8] | 1.23 ± 0.084 | 1.12 ± 0.098 | 1.36 ± 0.29 | 1.39 ± 0.11
DYSEIQRSRRKFSERRK [DSN1] | 2.86 ± 0.095 | 3.35 ± 0.24 | 3.46 ± 0.087 | 2.75 ± 0.16
DYVASLNELYQTQQDLP [NSL1] | 3 ± 0.056 | 3.19 ± 0.052 | 3.12 ± 0.058 | 3.06 ± 0.039
EAAKLLVDSLATFTSIE [RPN7] | 3.24 ± 0.18 | 3.1 ± 0.098 | 3.24 ± 0.096 | 2.68 ± 0.096
EAASSNKSFIVDQGQIY [ITC1] | 2.92 ± 0.1 | 2.95 ± 0.068 | 2.89 ± 0.044 | 2.93 ± 0.05
EAIETCKNFEKTQLGST [GAL11] | 2.51 ± 0.13 | 3.1 ± 0.19 |  | 3.36 ± 0.24
EARAEAINLMGVKNNLL [RPO31] | 3.35 ± 0.22 | 1.96 ± 0.15 | 1.84 ± 0.23 | 1.66 ± 0.24
EARFDVLITSYEMVIRE [ISW2] | 1.87 ± 0.094 | 1.49 ± 0.089 | 1.88 ± 0.11 | 2.02 ± 0.11
EARINELLSSLEGKGSL [RPP2B] | 2.74 ± 0.12 | 2.79 ± 0.099 | 2.91 ± 0.047 | 3.2 ± 0.077
EARLRNLTYSSGLFVDV [RPB2] | 2.34 ± 0.057 | 2.25 ± 0.047 | 1.46 ± 0.075 | 1.79 ± 0.028
ECADLWPRVASNSGVVV [RPL23A] | 2.9 ± 0.17 | 2.63 ± 0.1 | 3.06 ± 0.11 | 3.17 ± 0.062
ECLPAEGHDWKAPTKLD [DIS3] | 3.27 ± 0.098 | 3.21 ± 0.082 | 3.35 ± 0.071 | 3.23 ± 0.079
EDAFNFWFDKLVTKILP [YCG1] | 1.94 ± 0.21 | 2.5 ± 0.14 | 2.88 ± 0.12 | 2.94 ± 0.11
EDCVEEFFHLQHYLDTA [QCR6] | 3.21 ± 0.085 | 3.4 ± 0.081 | 3.13 ± 0.063 | 3.31 ± 0.068
EDEDDDDDDDEDEEEEE [QCR6] | 3.06 ± 0.049 | 3.5 ± 0.12 | 3.4 ± 0.041 | 3.84 ± 0.17
EDEEDDNISSFHSAVEN [YCG1] | 3.12 ± 0.069 | 3.2 ± 0.095 | 3.26 ± 0.052 | 2.6 ± 0.063
EDGLLEGLDELPKIIQL [SOH1] | 3.11 ± 0.07 | 3.3 ± 0.047 | 3.12 ± 0.044 | 3.15 ± 0.051
EDGTIESYNQNDWKLET [SIN4] | 3.29 ± 0.22 | 3.02 ± 0.2 | 3.22 ± 0.12 | 2.98 ± 0.11

Sequence | protein stability index (doa10∆) | protein stability index (pdr5∆) | protein stability index (san1∆) | protein stability index (ubr1∆)
EDHIFFKYIYELILAGA [YDL116W/NUP84] | 1.74 ± 0.07 | 1.98 ± 0.064 | 1.69 ± 0.089 | 1.66 ± 0.061
EDSENPSDWQRNSFIRD [ITC1] | 3.1 ± 0.082 | 3.12 ± 0.069 | 3.14 ± 0.065 | 3.27 ± 0.067
EEAAEESDDDMGFGLFD [RPP1B] | 3.14 ± 0.059 | 2.87 ± 0.073 | 3.371 ± 0.029 | 3.23 ± 0.037
EEASQQQQLQQNSKEKN [MED2] | 2.85 ± 0.092 | 2.85 ± 0.086 | 2.92 ± 0.071 | 2.83 ± 0.065
EEDADQEESFSLNLGIG [SRB8] | 3.2 ± 0.14 | 3.01 ± 0.27 | 2.94 ± 0.17 | 
EEDVYLDPLARVSKDKK [FAS2] | 3.5 ± 0.11 | 3.29 ± 0.11 | 3.46 ± 0.069 | 3.47 ± 0.061
EEEKELTEEELKTRYVG [RPN11] | 3.68 ± 0.2 | 3.44 ± 0.12 | 3.4 ± 0.067 | 3.5 ± 0.14
EEGEYKNAANTEGHKGH [ISW2] | 3.31 ± 0.062 | 3.16 ± 0.069 | 3.31 ± 0.064 | 3.21 ± 0.053
EEIEPKLEKLRNEKRMF [SMC2] | 2.89 ± 0.11 | 3.21 ± 0.074 | 3.02 ± 0.1 | 3.21 ± 0.079
EEIFFKSVRILKNKAEY [RPC40] | 3.2 ± 0.074 | 3.2 ± 0.085 | 3.06 ± 0.062 | 3.16 ± 0.047
EEIKQSARNYDKFKLNE [SMC1] | 3.25 ± 0.066 | 3.24 ± 0.073 | 3.16 ± 0.076 | 3.31 ± 0.046
EEIKTVDPASAPNHSPE [RRP6] | 3.01 ± 0.096 | 2.96 ± 0.072 | 3.27 ± 0.068 | 3.19 ± 0.056
EEKEEEAAEESDDDMGF [RPP1B] | 3.19 ± 0.06 | 3.23 ± 0.065 | 3.09 ± 0.048 | 3.31 ± 0.036
EEKLKANKEKKKAEKAA [RPL24A] | 3.23 ± 0.07 | 3.33 ± 0.11 | 3.28 ± 0.043 | 3.48 ± 0.067
EEKPDVTYSDVGGCKDQ [RPT1] | 3.48 ± 0.16 | 3.65 ± 0.19 | 3.04 ± 0.23 | 3.41 ± 0.11
EELRDLYQTYHVLVGDL [FAS1] | 2.26 ± 0.071 | 2.54 ± 0.054 | 2.22 ± 0.059 | 2.38 ± 0.049
EENEDNDGNNRTNNVPM [NUT1] | 3.11 ± 0.12 | 3.39 ± 0.11 | 3.31 ± 0.16 | 3.56 ± 0.089
EEQDVDMTGDEEQEEEP [RPC19] |  |  |  | 2.76 ± 0.28
EERERKDQYVPEVSALD [RPS17A] | 2.91 ± 0.082 | 3.13 ± 0.057 | 3.17 ± 0.042 | 2.82 ± 0.049
EESIKIYPLIKPGSTVM [UBP6] | 2.94 ± 0.18 | 3.01 ± 0.093 |  | 2.96 ± 0.17
EEYKQLVKDRKFLREVF [RPO21] | 3.32 ± 0.078 | 3.49 ± 0.076 | 2.81 ± 0.084 | 2.98 ± 0.11
EFANFELKDICSFAVTK [YML103C/NUP188] | 2.07 ± 0.072 | 2.29 ± 0.065 | 2.22 ± 0.12 | 2.05 ± 0.043
EFDSDDDDISDDEEDEI [RPN4] | 3.47 ± 0.1 | 3.28 ± 0.09 | 3.14 ± 0.082 | 3.31 ± 0.098
EFEKKLQETLNKSTSSE [YIL149C/MLP2] | 2.95 ± 0.12 | 2.66 ± 0.11 | 3.17 ± 0.14 | 3.27 ± 0.15
